The target of this test is T1, flag-tagged soluble TL3 (amino acids 105-251 of SEQ ID NO:234) (Homo sapiens (Human), UniProt O75888 105-250).
T1 construct: Heterologous flag-tagged control protein, immobilized in the ELISA; also called flagged tagged TL-3; not shown: Flag tag
T1 sequence: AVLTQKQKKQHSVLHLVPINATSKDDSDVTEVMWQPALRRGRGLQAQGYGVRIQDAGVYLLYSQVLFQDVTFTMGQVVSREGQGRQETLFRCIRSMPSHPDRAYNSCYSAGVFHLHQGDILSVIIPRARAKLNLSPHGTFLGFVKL
In words: phage ELISA on immobilized flag-tagged soluble TL3. In short, it runs like this:
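Phage displaying scFvs selected against flag-tagged GMAD were screened by ELISA against immobilized flag-tagged soluble TL3 (residues 105-251) as a heterologous flag-tagged counter-target, to check that binding is GMAD-specific.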
In general terms: In an ELISA, binding on a coated surface is turned into a signal by an enzyme label.

B1: GMCC142 (scFv)
scFv: EVQLVQSGAEVKKPGASVTISCKASGYTFTAYYIYWVRQAPGQGLEWMGMSNPNGGYTVYPPNFLGRVTTTPDTSTNTIYMELRSLRSEDTAVYYCARGRGRAPSNAFDFWGRGTLVTVSSGGGGSGGGGSGGGGSALSSELTQDPAVSVALGQTVRITCQGDSLKFYYASWYQQKPGQAPVLVLHGKNNRPSGIPDRFSGSTSRDTASLTITGTQAEDEADYYCNSRDNSDNIVFGTGTKLTVLG
Turning to B1, the binding result is reported as “no binding”.

B2: GMCC127 (scFv)
scFv: QVQLVQSGGGVVRPGGSLRLSCAASGFTFDDYGMSWVRQAPGKGLEWVSGINWNGGSTGYADSVKGRFTISRDNAKNSLYLQMNSLRAEDTAVYYCARRRYALDYWGRGTLVTVSSGGGGSGGGGSGGGGSALSSELTQDPAVSVALGQAVRITCQGDSLRTNYASWYQQRPGQAPVLVIRGNNNRPSGIPDRFSGSNSGDTVSLTITGAQAEDEADYYCNSRDTSGYHYVFGTGTKLTVLG
Turning to B2, the binding result is “no binding”.

B3: GMCC129 (scFv)
scFv: EVQLVETGGGLAQPGGSLRLSCEASGFTFNNYAMSWVRQAPGKGLEWVSGISISGYSTFYTDSVQGRFTISRDNSKNTLYLQMNSLGVDDTAVYYCAKRRGEGGDFDYWGRGTMVTVSSGGGGSGGGGSGGGGSALSSELTQDPAVSVALGQTVRITCQGDSLRGYYASWYQQKAGQAPVLVIYGKNNRPSGIPDRFSGSSSGNTASLTITGAQAEDEADYYCYSRDRSGNHLGMFGGGTKVTVLG
Consider B3, for which the binding result is “no binding”.

B4: GMCC131 (scFv)
scFv: QVQLQESGPGLVKPSETLSLTCSVSGGSIRSHYWSWMRQPPGKGLEWIGYVYYTGSTNYNPSLKSRVTMSVDTSKNQFSLNLSSVTAADTAIYYCARFPYSSGSNPLDYWGRGTLVTVSSGGGGSGGGGSGGGGSAQSVLTQPPSVSAAPGQRVTISCTGSSSNIGARYDVHWYQHLPGTAPKLLIYGDSNRPSGVPDRFSGSKSGTSASLAITGLQPEDEADYYCQSYDSSLSGVVFGGGTKVTVLG
With B4, the binding result is given as “no binding”.

B5: GMCC138 (scFv)
scFv: EVQLVETGPGLVKPSQTLSLTCTVSGGSISSGGYYWSWIRQVPGKGLEWIGYNFYNGSTYFNPSLKSRATISIDTTKNQFSLKLSSVTAADTAVYYCARGNGYRYGRWFDPWGRGTLVTVSSGGGGSGGGGSGGGGSALSYELTQPPSVSVSPGQTARITCSGDALPKQYAYWYQQKPGQAPVLVISKDSERPSGIPERFSGSSSGTTVTLTISGVQAEDEADYYCQSADSSGTYWVFGGGTKVTVLG
For B5, the binding result is recorded as “no binding”.
